# Reference: PMC12416549 (2024)
# T1: TNFR1 (Homo sapiens, UniProt P19438)
# T1 chain: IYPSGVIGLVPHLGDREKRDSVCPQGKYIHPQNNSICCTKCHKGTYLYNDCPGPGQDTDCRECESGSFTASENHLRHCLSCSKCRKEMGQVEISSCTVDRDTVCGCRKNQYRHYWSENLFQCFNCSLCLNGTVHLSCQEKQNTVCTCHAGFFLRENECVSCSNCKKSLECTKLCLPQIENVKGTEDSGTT
# Molecular target: T1, TNFR1
# Assay: yeast display SC50
row,Binder,apparent Kd (screen) [nM]
1,E4R (designed binder) SMEREVEKAAKEYEKKKKEAIEKHLEKLKAKDKEAAERFLKELEEAAKEYAKDEAKTMSEEEAKRRAKKYKEKVLLSELSEEEQKEIKEAEEKLVRTILKYVEEAAK,1.69
2,H24V (designed binder) SMEEEVEKAAKEYEKKKKEAIEKVLEKLKAKDKEAAERFLKELEEAAKEYAKDEAKTMSEEEAKRRAKKYKEKVLLSELSEEEQKEIKEAEEKLVRTILKYVEEAAK,1.05
3,K17S (designed binder) SMEEEVEKAAKEYEKKSKEAIEKHLEKLKAKDKEAAERFLKELEEAAKEYAKDEAKTMSEEEAKRRAKKYKEKVLLSELSEEEQKEIKEAEEKLVRTILKYVEEAAK,1.27
4,K48R (designed binder) SMEEEVEKAAKEYEKKKKEAIEKHLEKLKAKDKEAAERFLKELEEAAREYAKDEAKTMSEEEAKRRAKKYKEKVLLSELSEEEQKEIKEAEEKLVRTILKYVEEAAK,0.593
5,F39A (designed binder) SMEEEVEKAAKEYEKKKKEAIEKHLEKLKAKDKEAAERALKELEEAAKEYAKDEAKTMSEEEAKRRAKKYKEKVLLSELSEEEQKEIKEAEEKLVRTILKYVEEAAK,3
6,E4P (designed binder) SMEPEVEKAAKEYEKKKKEAIEKHLEKLKAKDKEAAERFLKELEEAAKEYAKDEAKTMSEEEAKRRAKKYKEKVLLSELSEEEQKEIKEAEEKLVRTILKYVEEAAK,3.3
7,D32G (designed binder) SMEEEVEKAAKEYEKKKKEAIEKHLEKLKAKGKEAAERFLKELEEAAKEYAKDEAKTMSEEEAKRRAKKYKEKVLLSELSEEEQKEIKEAEEKLVRTILKYVEEAAK,0.593
8,K31R (designed binder) SMEEEVEKAAKEYEKKKKEAIEKHLEKLKARDKEAAERFLKELEEAAKEYAKDEAKTMSEEEAKRRAKKYKEKVLLSELSEEEQKEIKEAEEKLVRTILKYVEEAAK,0.49
9,E37R (designed binder) SMEEEVEKAAKEYEKKKKEAIEKHLEKLKAKDKEAARRFLKELEEAAKEYAKDEAKTMSEEEAKRRAKKYKEKVLLSELSEEEQKEIKEAEEKLVRTILKYVEEAAK,0.446
10,K16Q (designed binder) SMEEEVEKAAKEYEKQKKEAIEKHLEKLKAKDKEAAERFLKELEEAAKEYAKDEAKTMSEEEAKRRAKKYKEKVLLSELSEEEQKEIKEAEEKLVRTILKYVEEAAK,0.718
11,L43S (designed binder) SMEEEVEKAAKEYEKKKKEAIEKHLEKLKAKDKEAAERFLKESEEAAKEYAKDEAKTMSEEEAKRRAKKYKEKVLLSELSEEEQKEIKEAEEKLVRTILKYVEEAAK,0.49

# The remaining lines, values ahead:
row,apparent Kd (screen) [nM],Binder
1,0.869,E54W (designed binder) SMEEEVEKAAKEYEKKKKEAIEKHLEKLKAKDKEAAERFLKELEEAAKEYAKDWAKTMSEEEAKRRAKKYKEKVLLSELSEEEQKEIKEAEEKLVRTILKYVEEAAK
2,1.27,A55E (designed binder) SMEEEVEKAAKEYEKKKKEAIEKHLEKLKAKDKEAAERFLKELEEAAKEYAKDEEKTMSEEEAKRRAKKYKEKVLLSELSEEEQKEIKEAEEKLVRTILKYVEEAAK
3,1.54,K93C (designed binder) SMEEEVEKAAKEYEKKKKEAIEKHLEKLKAKDKEAAERFLKELEEAAKEYAKDEAKTMSEEEAKRRAKKYKEKVLLSELSEEEQKEIKEAEECLVRTILKYVEEAAK
4,1.4,K68E (designed binder) SMEEEVEKAAKEYEKKKKEAIEKHLEKLKAKDKEAAERFLKELEEAAKEYAKDEAKTMSEEEAKRRAEKYKEKVLLSELSEEEQKEIKEAEEKLVRTILKYVEEAAK
5,3.63,E54A (designed binder) SMEEEVEKAAKEYEKKKKEAIEKHLEKLKAKDKEAAERFLKELEEAAKEYAKDAAKTMSEEEAKRRAKKYKEKVLLSELSEEEQKEIKEAEEKLVRTILKYVEEAAK
6,11.4,S77P (designed binder) SMEEEVEKAAKEYEKKKKEAIEKHLEKLKAKDKEAAERFLKELEEAAKEYAKDEAKTMSEEEAKRRAKKYKEKVLLPELSEEEQKEIKEAEEKLVRTILKYVEEAAK
7,16.7,A63T (designed binder) SMEEEVEKAAKEYEKKKKEAIEKHLEKLKAKDKEAAERFLKELEEAAKEYAKDEAKTMSEEETKRRAKKYKEKVLLSELSEEEQKEIKEAEEKLVRTILKYVEEAAK
8,0.49,K71T (designed binder) SMEEEVEKAAKEYEKKKKEAIEKHLEKLKAKDKEAAERFLKELEEAAKEYAKDEAKTMSEEEAKRRAKKYTEKVLLSELSEEEQKEIKEAEEKLVRTILKYVEEAAK
9,1.05,V74G (designed binder) SMEEEVEKAAKEYEKKKKEAIEKHLEKLKAKDKEAAERFLKELEEAAKEYAKDEAKTMSEEEAKRRAKKYKEKGLLSELSEEEQKEIKEAEEKLVRTILKYVEEAAK
10,0.446,E82H (designed binder) SMEEEVEKAAKEYEKKKKEAIEKHLEKLKAKDKEAAERFLKELEEAAKEYAKDEAKTMSEEEAKRRAKKYKEKVLLSELSEHEQKEIKEAEEKLVRTILKYVEEAAK
11,13.8,E92Y (designed binder) SMEEEVEKAAKEYEKKKKEAIEKHLEKLKAKDKEAAERFLKELEEAAKEYAKDEAKTMSEEEAKRRAKKYKEKVLLSELSEEEQKEIKEAEYKLVRTILKYVEEAAK
12,7.07,Y50W (designed binder) SMEEEVEKAAKEYEKKKKEAIEKHLEKLKAKDKEAAERFLKELEEAAKEWAKDEAKTMSEEEAKRRAKKYKEKVLLSELSEEEQKEIKEAEEKLVRTILKYVEEAAK
13,0.869,K85H (designed binder) SMEEEVEKAAKEYEKKKKEAIEKHLEKLKAKDKEAAERFLKELEEAAKEYAKDEAKTMSEEEAKRRAKKYKEKVLLSELSEEEQHEIKEAEEKLVRTILKYVEEAAK
14,0.49,V102M (designed binder) SMEEEVEKAAKEYEKKKKEAIEKHLEKLKAKDKEAAERFLKELEEAAKEYAKDEAKTMSEEEAKRRAKKYKEKVLLSELSEEEQKEIKEAEEKLVRTILKYMEEAAK
15,5.84,I98H (designed binder) SMEEEVEKAAKEYEKKKKEAIEKHLEKLKAKDKEAAERFLKELEEAAKEYAKDEAKTMSEEEAKRRAKKYKEKVLLSELSEEEQKEIKEAEEKLVRTHLKYVEEAAK
